Key:
[1] = target: 2C T cell receptor on CD8+ T cells of 2C TCR transgenic mice (mouse); test: estimated from dissociation data, activated 2C T cells
[2] = target: 2C T cell receptor on CD8+ T cells of 2C TCR transgenic mice (mouse); test: flow cytometry off-rate assay on naive 2C T cells, derived from off-rate
[3] = target: 2C T cell receptor on CD8+ T cells of 2C TCR transgenic mice (mouse); test: flow cytometry off-rate assay on activated 2C T cells, derived from off-rate
[4] = target: 2C T cell receptor on CD8+ T cells of 2C TCR transgenic mice (mouse); test: estimated from dissociation data, naive 2C T cells; one contact is assumed for the dimer on naive cells
[5] = target: 2C T cell receptor on CD8+ T cells of 2C TCR transgenic mice (mouse); test: flow cytometry off-rate assay on naive 2C T cells, APC-labeled MHC-Ig, 1B2 added to prevent re-binding, exponential fit
[6] = target: 2C T cell receptor on CD8+ T cells of 2C TCR transgenic mice (mouse); test: flow cytometry off-rate assay on activated 2C T cells, APC-labeled MHC-Ig, 1B2 added to prevent re-binding, exponential fit
[7] = target: 2C T cell receptor on CD8+ T cells of 2C TCR transgenic mice (mouse); test: estimated from dissociation data, naive 2C T cells
[8] = target: 2C T cell receptor on CD8+ T cells of 2C TCR transgenic mice (mouse); test: estimated from dissociation data, naive cells (6.8 contacts)
[9] = target: 2C T cell receptor on CD8+ T cells of 2C TCR transgenic mice (mouse); test: off-rate assay, flow cytometry, activated against naive T cells
[10] = target: 2C T cell receptor on CD8+ T cells of 2C TCR transgenic mice (mouse); test: estimated from dissociation data, activated cells (12.6 contacts)
[11] = target: 2C T cell receptor on CD8+ T cells of 2C TCR transgenic mice (mouse); test: flow cytometry, Alexa 647 labeled particles bound to naive CD44lo 2C T cells
[12] = target: 2C T cell receptor on CD8+ T cells of 2C TCR transgenic mice (mouse); test: equilibrium particle binding assay, flow cytometry, activated against naive T cells
[13] = target: pmel T cell receptor on CD8+ T cells of pMEL TCR transgenic mice (mouse) (UniProt Q60696); test: flow cytometry, Alexa 647 labeled particles on control non-cognate CD44lo pmel T cells
Sequence of UniProt Q60696 (Q60696 whole entry): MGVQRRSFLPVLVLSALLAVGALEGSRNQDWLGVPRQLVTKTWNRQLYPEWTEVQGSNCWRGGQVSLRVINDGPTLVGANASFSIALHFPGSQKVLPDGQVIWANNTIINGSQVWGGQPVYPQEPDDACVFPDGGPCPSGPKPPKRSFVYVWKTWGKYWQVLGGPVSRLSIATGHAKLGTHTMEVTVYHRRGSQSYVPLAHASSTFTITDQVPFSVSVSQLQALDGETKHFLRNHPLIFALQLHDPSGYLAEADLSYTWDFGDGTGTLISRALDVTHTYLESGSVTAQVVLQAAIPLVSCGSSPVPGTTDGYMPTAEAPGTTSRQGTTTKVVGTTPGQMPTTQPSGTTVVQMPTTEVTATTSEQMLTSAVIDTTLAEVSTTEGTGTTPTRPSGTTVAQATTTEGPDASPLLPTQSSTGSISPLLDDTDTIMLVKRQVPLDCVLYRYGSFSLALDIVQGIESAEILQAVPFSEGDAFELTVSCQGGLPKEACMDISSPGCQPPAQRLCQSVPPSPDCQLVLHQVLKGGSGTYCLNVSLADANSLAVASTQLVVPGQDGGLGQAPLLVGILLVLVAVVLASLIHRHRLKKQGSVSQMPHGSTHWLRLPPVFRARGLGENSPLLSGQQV

[14] = target: 2C T cell receptor on CD8+ T cells of 2C TCR transgenic mice (mouse); test: flow cytometry, Alexa 647 labeled particles bound to activated 2C T cells (seven days after peptide activation)
[15] = target: 2C T cell receptor on CD8+ T cells of 2C TCR transgenic mice (mouse); test: flow cytometry off-rate assay on naive 2C T cells, APC-labeled nanoparticles bearing K^b-SIY alone, 1B2 added to prevent re-binding, exponential fit
[16] = target: 2C T cell receptor on CD8+ T cells of 2C TCR transgenic mice (mouse); test: flow cytometry off-rate assay on activated 2C T cells, APC-labeled nanoparticles bearing K^b-SIY alone, 1B2 added to prevent re-binding, exponential fit

Substance | TCR-MHC Contacts [1] | Half-Life [2] | Half-Life [3] | TCR-MHC Contacts [4] | koff [5] | koff [6] | TCR-MHC Contacts [7] | percent of MHC-Ig dimers on the particle surface in TCR-MHC contacts [8] | fold slower disassociation from activated than from naive cells [9] | percent of MHC-Ig dimers on the particle surface in TCR-MHC contacts [10] | MFI [11] | fold fewer nanoparticles bound at equilibrium by activated than by naive cells [12] | MFI [13] | MFI [14] | koff [15] | koff [16]
K^b-SIY MHC-Ig dimer (soluble K^b-Ig loaded with SIY peptide) (from UniProt P01901 22-305) (peptide-MHC) | 1.7 contacts | 1.3 min | 1.87 min | 1 contacts | 0.0089 s⁻¹ | 0.0052 s⁻¹ | – | – | – | – | – | – | – | – | – | –
Nanoparticles bearing K^b-SIY MHC-Ig alone (iron-dextran nanoparticle, no anti-CD28) (from UniProt P01901 22-305) (peptide-MHC) | 12.6 contacts | 8.85 min | 16.4 min | – | – | – | 6.8 contacts | 11% | 2 fold | 22% | 179 MFI | 2 fold | 21 MFI | 89 MFI | 0.002 s⁻¹ | 0.0009 s⁻¹

From patent US10435668
